Reference: PMC4411300, “Reconstitution and structure of a bacterial Pnkp1–Rnl–Hen1 RNA repair complex” (Nature Communications, 2015)

Legend:
[1] = biological target: Capnocytophaga gingivalis Pnkp1 (Capnocytophaga gingivalis); experiment: SEC; purified proteins analysed singly, or two proteins combined in equimolar and incubated at 4 °C for an hour before size-exclusion chromatography
[2] = biological target: Hen1 in the Pnkp1–Rnl–Hen1 heterohexamer (CgiHen1) (Capnocytophaga gingivalis, UniProt Z9ZGS5E134); experiment: X-ray crystal structure, […] Å, co-purified ligand; format: binding; conditions: methyltransferase active site of Hen1; retained from E. coli expression, not added; weak density, low occupancy

## Capnocytophaga gingivalis Pnkp1 (enzyme)
[1]
  stoichiometry N: 2

## Nc1ncnc2c1ncn2[C@@H]1O[C@H](CSCC[C@H](N)C(=O)O)[C@@H](O)[C@H]1O [SAH]
[2]
  X-ray crystal structure, 3.4 Å, co-purified ligand: SAH was modelled in the methyltransferase active site of Hen1-b
